First the molecules themselves.
B1: Adrenodoxin, mitochondrial, P00257 (parent)
chain: MAARLLRVASAALGDTAGRWRLLARPRAGAGGLRGSRGPGLGGGAVATRTLSVSGRAQSSSEDKITVHFINRDGETLTTKGKIGDSLLDVVVQNNLDIDGFGACEGTLACSTCHLIFEQHIFEKLEAITDEENDMLDLAYGLTDRSRLGCQICLTKAMDNMTVRVPDAVSDARESIDMGMNSSKIE

Variants of B1 are the subject of this series. The note with it: Bos taurus, pH 8.5, Thermal, DSC, ascorbate 1 mM, structure 1AYF, whole UniProt chain shown; for ddG of mutation (higher = less stable) / unfolding free energy: 37 °C.

Regarding MAARLLRVASAALGDTAGRWRLLARPRAGAGGLRGSRGPGLGGGAVATRTLSVSGRAQSSSEDKITVHFINRDGETLTTKGKIGDSLLDVVVQNNLDIDGFGACEGTLACSACHLIFEQHIFEKLEAITDEENDMLDLAYGLTDRSRLGCQICLTKAMDNMTVRVPDAVSDARESIDMGMNSSKIE [T112A], the “ddG of mutation (higher = less stable)” value was 1.31 kcal/mol; the unfolding free energy was found to be 1.87 kcal/mol; the midpoint of thermal melting (Tm) was 47.1 °C; the “change of melting temperature, mutant - wild type (higher = more stable)” value (“change of melting temperature, mutant” below) is -4.29 °C. The “heat capacity change of unfolding” value stood at 1.63 kcal/mol/K and the “unfolding enthalpy (calorimetric)” value is 68.2 kcal/mol.

On to MAARLLRVASAALGDTAGRWRLLARPRAGAGGLRGSRGPGLGGGAVATRTLSVSGRAQSSSEDKITVHFINRDGETLTTKGKIGDSLLDVVVQNNLDIDGFGACEGTLACSSCHLIFEQHIFEKLEAITDEENDMLDLAYGLTDRSRLGCQICLTKAMDNMTVRVPDAVSDARESIDMGMNSSKIE [T112S], for which the “ddG of mutation (higher = less stable)” value was -0.05 kcal/mol; the unfolding free energy came to 3.23 kcal/mol; the midpoint of thermal melting (Tm) was 51.6 °C; the “change of melting temperature, mutant” value is 0.21 °C. For the same variant, the “heat capacity change of unfolding” value worked out at 1.91 kcal/mol/K and the “unfolding enthalpy (calorimetric)” value is 84.7 kcal/mol.

As for MAARLLRVASAALGDTAGRWRLLARPRAGAGGLRGSRGPGLGGGAVATRTLSVSGRAQSSSEDKITVHFINRDGETLTTKGKIGDSLLDVVVQNNLDIDGFGACEGTLACSTCTLIFEQHIFEKLEAITDEENDMLDLAYGLTDRSRLGCQICLTKAMDNMTVRVPDAVSDARESIDMGMNSSKIE [H114T], the “ddG of mutation (higher = less stable)” value amounted to 1.19 kcal/mol and the unfolding free energy is 1.99 kcal/mol.

As to MAARLLRVASAALGDTAGRWRLLARPRAGAGGLRGSRGPGLGGGAVATRTLSVSGRAQSSSEDKITVHFINRDGETLTTKGKIGDSLLDVVVQNNLDIDGFGACEGTLACSTCRLIFEQHIFEKLEAITDEENDMLDLAYGLTDRSRLGCQICLTKAMDNMTVRVPDAVSDARESIDMGMNSSKIE [H114R], the “ddG of mutation (higher = less stable)” value amounted to 1.16 kcal/mol; the unfolding free energy came out at 2.02 kcal/mol; the melting temperature (Tm) turned out to be 49.3 °C; the “change of melting temperature, mutant” value is -2.11 °C. For the same variant, the “heat capacity change of unfolding” value is 1.03 kcal/mol/K and the “unfolding enthalpy (calorimetric)” value was determined as 59.4 kcal/mol.

Take MAARLLRVASAALGDTAGRWRLLARPRAGAGGLRGSRGPGLGGGAVATRTLSVSGRAQSSSEDKITVHFINRDGETLTTKGKIGDSLLDVVVQNNLDIDGFGACEGTLACSTCHLIFEQHIFEKLEAITDEENEMLDLAYGLTDRSRLGCQICLTKAMDNMTVRVPDAVSDARESIDMGMNSSKIE [D134E]: the “ddG of mutation (higher = less stable)” value was -0.45 kcal/mol; the unfolding free energy was found to be 3.64 kcal/mol; the Tm was 53.4 °C; the “change of melting temperature, mutant” value came to 2.01 °C. The “heat capacity change of unfolding” value turned out to be 2.45 kcal/mol/K and the “unfolding enthalpy (calorimetric)” value was determined as 86.8 kcal/mol.

Regarding MAARLLRVASAALGDTAGRWRLLARPRAGAGGLRGSRGPGLGGGAVATRTLSVSGRAQSSSEDKITVHFINRDGETLTTKGKIGDSLLDVVVQNNLDIDGFGACEGTLACSTCHLIFEQHIFEKLEAITDEENDMLDLALGLTDRSRLGCQICLTKAMDNMTVRVPDAVSDARESIDMGMNSSKIE [Y140L], the “ddG of mutation (higher = less stable)” value is 0.36 kcal/mol; the unfolding free energy came to 2.83 kcal/mol; the Tm turned out to be 50.7 °C; the “change of melting temperature, mutant” value is -0.69 °C. Besides, the “heat capacity change of unfolding” value was found to be 1.92 kcal/mol/K and the “unfolding enthalpy (calorimetric)” value was found to be 78.9 kcal/mol.

As to MAARLLRVASAALGDTAGRWRLLARPRAGAGGLRGSRGPGLGGGAVATRTLSVSGRAQSSSEDKITVHFINRDGETLTTKGKIGDSLLDVVVQNNLDIDGFGACEGTLACSTCHLIFEQHIFEKLEAITDEENDMLDLAWGLTDRSRLGCQICLTKAMDNMTVRVPDAVSDARESIDMGMNSSKIE [Y140W], the “ddG of mutation (higher = less stable)” value was determined as 0.21 kcal/mol; the unfolding free energy was 2.97 kcal/mol; the melting temperature (Tm) amounted to 51.7 °C; the “change of melting temperature, mutant” value turned out to be 0.31 °C. Besides, the “heat capacity change of unfolding” value was determined as 1.87 kcal/mol/K and the “unfolding enthalpy (calorimetric)” value was 78.6 kcal/mol.

As for MAARLLRVASAALGDTAGRWRLLARPRAGAGGLRGSRGPGLGGGAVATRTLSVSGRAQSSSEDKITVHFINRDGETLTTKGKIGDSLLDVVVQNNLDIDGFGACEGTLACSTCHLIFEQHIFEKLEAITDEENDMLDLAFGLTDRSRLGCQICLTKAMDNMTVRVPDAVSDARESIDMGMNSSKIE [Y140F], the “ddG of mutation (higher = less stable)” value came out at 0.01 kcal/mol; the unfolding free energy came out at 3.17 kcal/mol; the melting temperature (Tm) was 51.5 °C; the “change of melting temperature, mutant” value was determined as 0.11 °C. Besides, the “heat capacity change of unfolding” value is 1.8 kcal/mol/K and the “unfolding enthalpy (calorimetric)” value was 83.7 kcal/mol.

The term Tm denotes the temperature at which the thermal transition is half complete.

(Values after FireProtDB (doi:10.1002/pro.5560050915).)
